Experimental data as given in patent US20100048478A1 (University of Pennsylvania, published 2010).
Blank lines part the entries; values can stand above or below the molecule they belong to.

Legend:
[1] = molecular target: TRAIL receptor DR5 on SK-Hep1 human hepatoma cells (human) (UniProt O14763); assay: cell-based or functional assay
[2] = molecular target: T1, murine TWEAK, full length, on transiently transfected CHO cells (murine, UniProt O54907 1-249); assay: flow cytometry on CHO cells transiently transfected with murine TWEAK, 4 C, detected with anti-mouse TRAIL Ab
T1 construct: whole, on cells; also called cell surface TWEAK
T1 sequence (looked up): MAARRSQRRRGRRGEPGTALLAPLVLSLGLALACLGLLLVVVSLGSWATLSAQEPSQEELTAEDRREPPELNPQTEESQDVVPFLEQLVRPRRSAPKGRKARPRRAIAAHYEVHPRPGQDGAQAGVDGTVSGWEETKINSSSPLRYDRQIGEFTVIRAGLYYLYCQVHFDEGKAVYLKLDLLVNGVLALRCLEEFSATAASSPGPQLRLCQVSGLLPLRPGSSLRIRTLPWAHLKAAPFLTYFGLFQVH
Protocol: B) CHO cells were transiently transfected with a murine TWEAK cDNA expression construct, and after 48 h, were incubated at 4° C. with purified Fn14-TRAIL or rTRAIL in sodium azide-containing buffer. The presence of membrane-bound TWEAK on transfectants, and the binding of Fn14-TRAIL to them, was verified by flow cytometry, using anti-mouse TWEAK Ab (B.1) and anti-mouse TRAIL Ab (B.2-5) as detecting Ab, respectively. (B.1) TWEAK is expressed on transfected CHO cells, as detected using anti-TWEAK Ab (solid black line) versus isotype control (filled histogram); (B.2) TRAIL is not detectable on CHO cells, when analyzed using anti-TRAIL Ab (solid black line) versus isotype control (filled histogram). (B.3 and B.4) TRAIL epitopes are enhanced when Fn14-TRAIL is added to TWEAK-expressing, as opposed to TWEAK-negative, CHO cells. Anti-TRAIL Ab and isotype control are represented by solid black line and filled histogram, respectively. […] Isotype control is shown as filled histogram.
To validate the identity of expressed Fn14-TRAIL, its ability to bind to Fn14's ligand, TWEAK, was assessed. To this end, CHO cells were transiently transfected with a murine TWEAK cDNA expression construct (in the pcDNA3 vector), and after 48 h, transfectants were incubated at 4° C. with purified Fn14-TRAIL or soluble TRAIL.

Sequence of TRAIL receptor DR5 on SK-Hep1 human hepatoma cells (human) (O14763 56-440): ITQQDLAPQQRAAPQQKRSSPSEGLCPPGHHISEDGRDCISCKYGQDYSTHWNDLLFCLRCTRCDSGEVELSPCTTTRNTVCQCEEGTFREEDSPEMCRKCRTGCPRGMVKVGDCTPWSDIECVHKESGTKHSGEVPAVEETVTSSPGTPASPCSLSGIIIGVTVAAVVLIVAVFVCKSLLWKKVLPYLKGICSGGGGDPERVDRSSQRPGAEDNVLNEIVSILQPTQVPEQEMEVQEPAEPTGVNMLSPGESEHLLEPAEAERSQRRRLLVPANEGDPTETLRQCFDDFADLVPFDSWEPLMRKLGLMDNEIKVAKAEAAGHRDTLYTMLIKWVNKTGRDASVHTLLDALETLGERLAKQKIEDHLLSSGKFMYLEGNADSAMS

Molecule: purified untagged human Fn14-TRAIL protein
- killing effect on SK-Hep1 cells (24 h, trypan blue live/dead count) [1]: 0.04 nM

- binding result [2]: no binding
B1: soluble TRAIL (aa 118-291 of murine TRAIL) (ligand, UniProt P50592 118-291, looked up)
chain: PRGGRPQKVAAHITGITRRSNSALIPISKDGKTLGQKIESWESSRKGHSFLNHVLFRNGELVIEQEGLYYIYSQTYFRFQEAEDASKMVSKDKVRTKQLVQYIYKYTSYPDPIVLMKSARNSCWSRDAEYGLYSIYQGGLFELKKNDRIFVSVTNEHLMDLDQEASFFGAFLIN
notes: range 118-291
